Experimental data reported in paper PMC4607889, “Modular Design of the Selectivity Filter Pore Loop in a Novel Family of Prokaryotic ‘Inward Rectifier’ (NirBac) channels” (Scientific Reports, 2015).
Each block holds one compound with its values, some of them ahead of it.

Experiments:
[1] = biological target: NirBac1.1 (Anaeromyxobacter dehalogenans 2CP-C); assay: SEC + native gel or EMSA; purified channel in detergent, non-denaturing conditions; Superdex200; oligomeric state (Supplementary Figure S2B,C)
[2] = biological target: NirBac1.2 (Anaeromyxobacter sp. Fw109-5); assay: as above
NirBac1.1 = biological target: T1, NirBac1.1 (Anaeromyxobacter dehalogenans, UniProt Q2IH88); assay: […]+ uptake into proteoliposomes; type: biochemical; conditions: POPG as part of liposome lipid, 25% vs 50% of total; Na+ driven; activator
T1 sequence (Q2IH88 1-305): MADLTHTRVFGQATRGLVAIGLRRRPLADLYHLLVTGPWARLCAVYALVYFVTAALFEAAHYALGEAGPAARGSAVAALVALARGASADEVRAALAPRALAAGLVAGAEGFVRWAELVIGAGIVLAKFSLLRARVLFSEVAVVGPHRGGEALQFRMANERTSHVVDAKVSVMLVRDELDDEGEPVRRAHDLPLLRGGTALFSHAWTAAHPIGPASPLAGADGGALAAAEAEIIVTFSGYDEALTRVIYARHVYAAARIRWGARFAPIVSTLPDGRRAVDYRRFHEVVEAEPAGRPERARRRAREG

NirBac1.2 = biological target: T2, NirBac1.2 (Anaeromyxobacter sp. Fw109-5, UniProt A7HIG5); assay: […]+ uptake into proteoliposomes; type: biochemical; conditions: POPG as part of liposome lipid, 25% vs 50% of total; Na+ driven; activator
T2 sequence (A7HIG5 1-299): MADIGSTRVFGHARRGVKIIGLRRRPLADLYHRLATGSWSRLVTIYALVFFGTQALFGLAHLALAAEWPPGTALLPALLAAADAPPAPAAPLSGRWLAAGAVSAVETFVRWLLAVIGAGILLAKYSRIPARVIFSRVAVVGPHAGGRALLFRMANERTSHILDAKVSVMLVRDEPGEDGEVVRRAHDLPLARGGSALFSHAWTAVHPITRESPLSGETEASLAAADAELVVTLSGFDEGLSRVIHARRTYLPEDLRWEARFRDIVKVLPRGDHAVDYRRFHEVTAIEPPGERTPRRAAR

stoichiometry N [1]: 4
Compound: NirBac1.1 (natural protein)

stoichiometry N [2]: 4
Compound: NirBac1.2 (natural protein)

Compound: CCCCCCCC/C=C\CCCCCCCC(=O)O[C@H](COC(=O)CCCCCCCCCCCCCCC)COP(=O)(O)OCC(O)CO (stereo partly shown) [POPG]
fold flux increase, 25% to 50% POPG (NirBac1.1): > 5 fold
fold flux increase, 25% to 50% POPG (NirBac1.2): > 5 fold
